Test results from PMC8292422 (Nature Communications, 2021).

What was measured:
[1] = molecular target: T1, DrBphP (Deinococcus radiodurans, UniProt Q9RZA4); experiment: Phos-tag gel, dephosphorylation of phospho-DrRR with and without ATP; assay type: biochemical; settings: 1 mM ATP, phospho-DrRR as substrate, 5 mM MgCl2, pH 7.8, 25 °C, dark or red light
T1 construct: gene bphP; full length (755 residues), C-terminal His6 tag, pET21b(+), E. coli BL21(DE3), assembled with biliverdin
T1 sequence (Q9RZA4 1-755): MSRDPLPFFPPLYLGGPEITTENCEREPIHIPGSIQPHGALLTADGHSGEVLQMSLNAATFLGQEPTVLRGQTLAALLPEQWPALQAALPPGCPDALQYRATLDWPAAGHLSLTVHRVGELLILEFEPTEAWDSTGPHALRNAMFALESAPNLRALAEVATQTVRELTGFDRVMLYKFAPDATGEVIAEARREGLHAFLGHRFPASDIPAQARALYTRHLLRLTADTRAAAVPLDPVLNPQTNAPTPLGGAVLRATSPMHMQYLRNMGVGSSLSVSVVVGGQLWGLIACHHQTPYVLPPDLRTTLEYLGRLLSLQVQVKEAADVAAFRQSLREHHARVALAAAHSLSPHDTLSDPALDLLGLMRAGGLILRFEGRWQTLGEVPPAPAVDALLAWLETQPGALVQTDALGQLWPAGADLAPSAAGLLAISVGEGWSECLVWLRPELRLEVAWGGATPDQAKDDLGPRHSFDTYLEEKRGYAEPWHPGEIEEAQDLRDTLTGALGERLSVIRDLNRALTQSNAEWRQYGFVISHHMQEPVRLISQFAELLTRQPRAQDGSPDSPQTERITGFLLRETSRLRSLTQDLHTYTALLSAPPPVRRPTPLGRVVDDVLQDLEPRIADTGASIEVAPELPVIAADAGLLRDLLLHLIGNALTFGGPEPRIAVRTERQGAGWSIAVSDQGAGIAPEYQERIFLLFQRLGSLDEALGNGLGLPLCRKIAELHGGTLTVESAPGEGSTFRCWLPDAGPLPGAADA

[2] = molecular target: T2, AtRR1 (Agrobacterium fabrum, UniProt Q7CY46); experiment: chemical phosphorylation, Phos-tag gel; assay type: biochemical; settings: 50 mM acetyl phosphate, 5 mM MgCl2, pH 7.8, 37 °C, 30 min
T2 construct: gene Atu1989; REC-domain-only response regulator, His6 tag, pET21b(+) with N-terminal T7 tag, E. coli BL21(DE3)
T2 sequence (Q7CY46 1-151): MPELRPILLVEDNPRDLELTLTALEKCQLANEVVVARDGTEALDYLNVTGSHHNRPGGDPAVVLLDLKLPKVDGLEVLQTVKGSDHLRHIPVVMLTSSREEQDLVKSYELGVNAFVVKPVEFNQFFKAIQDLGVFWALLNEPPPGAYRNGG

[3] = molecular target: T3, response regulator from Deinococcus radiodurans (DrRR) (Deinococcus radiodurans strain R1, UniProt Q9RZA5 1-149); experiment: ITC; Ca2+ buffer
T3 chain: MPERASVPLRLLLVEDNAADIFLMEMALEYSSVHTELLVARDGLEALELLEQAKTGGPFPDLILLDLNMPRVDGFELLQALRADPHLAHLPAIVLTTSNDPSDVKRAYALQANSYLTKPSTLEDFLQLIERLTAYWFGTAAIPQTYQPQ

[4] = molecular target: T3, response regulator from Deinococcus …; experiment: ITC; Tris pH 8.0
[5] = molecular target: T3, response regulator from Deinococcus …; experiment: ITC; 1 mM AMP-PNP
[6] = molecular target: T3, response regulator from Deinococcus …; experiment: SPR; dark (D), kinetic
[7] = molecular target: T3, response regulator from Deinococcus …; experiment: SPR; dark (D), kinetic
[8] = molecular target: T3, response regulator from Deinococcus …; experiment: SPR; red light (R), kinetic
[9] = molecular target: T3, response regulator from Deinococcus …; experiment: SPR; red light (R), kinetic
[10] = molecular target: T3, response regulator from Deinococcus …; experiment: ITC; dark (D), 30 mM Tris/HCl, pH 8.0
[11] = molecular target: DrBphP E536A variant (Deinococcus radiodurans strain R1, UniProt Q9RZA4 1-755, E536A, biliverdin chromophore (molar excess of biliverdin hydrochloride added to the lysate)); experiment: ITC
[12] = molecular target: T4, bacteriophytochrome from Deinococcus radiodurans (DrBphP), wild type (Deinococcus radiodurans strain R1, UniProt Q9RZA4 1-755, biliverdin chromophore (molar excess of biliverdin hydrochloride added to the lysate; thioether linkage to the conserved cysteine within the PAS domain)); experiment: SPR; same sensorgrams as the dark steady-state SPR; 1:1 Langmuir kinetic fit of ka/kd; DrBphP 8-67 µM; settings: both partners purified
T4 construct: Pr (dark or far-red) and Pfr (red light) states are told apart by the assay; source: E. coli BL21 (DE3), purified (NiNTA, SEC)
T4 sequence: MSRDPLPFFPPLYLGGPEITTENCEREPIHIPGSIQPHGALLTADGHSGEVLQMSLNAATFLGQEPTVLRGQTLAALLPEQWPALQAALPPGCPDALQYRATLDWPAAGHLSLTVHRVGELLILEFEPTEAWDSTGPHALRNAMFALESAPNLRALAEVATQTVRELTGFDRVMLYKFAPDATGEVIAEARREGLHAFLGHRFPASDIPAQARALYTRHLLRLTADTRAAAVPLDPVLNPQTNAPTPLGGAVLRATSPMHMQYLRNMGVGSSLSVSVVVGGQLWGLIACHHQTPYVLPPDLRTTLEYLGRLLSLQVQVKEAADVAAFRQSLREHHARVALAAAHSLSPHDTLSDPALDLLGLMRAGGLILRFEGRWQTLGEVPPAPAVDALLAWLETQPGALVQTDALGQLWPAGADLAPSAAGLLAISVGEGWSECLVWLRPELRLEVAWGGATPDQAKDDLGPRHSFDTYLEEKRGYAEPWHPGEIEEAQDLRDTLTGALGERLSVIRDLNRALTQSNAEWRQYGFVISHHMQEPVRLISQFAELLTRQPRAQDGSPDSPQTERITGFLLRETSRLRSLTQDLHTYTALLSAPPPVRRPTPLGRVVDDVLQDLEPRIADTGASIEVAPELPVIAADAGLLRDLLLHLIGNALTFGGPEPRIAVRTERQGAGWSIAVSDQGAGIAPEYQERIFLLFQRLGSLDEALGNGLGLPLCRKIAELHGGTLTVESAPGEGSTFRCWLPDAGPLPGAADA

[13] = molecular target: T4, bacteriophytochrome from Deinococcus …; experiment: SPR; Biacore X; response regulator coupled (EDC/NHS) on a carboxymethyldextran chip, phytochrome flowed after red light (655 nm, Pfr); 20 mM HEPES, 300 mM NaCl, 5 mM MgCl2, 0.10% Tween20, pH 7.5; room temperature; steady-state fit; settings: both partners purified
[14] = molecular target: T4, bacteriophytochrome from Deinococcus …; experiment: ITC; MicroCal PEAQ-ITC; BphP (30-50 µM) in the cell in the Pr state (785 nm), RR (750-800 µM) in the syringe; 25 °C, dark; Tris/HCl pH 7.8, 5 mM MgCl2, 4 mM 2-mercaptoethanol, 5% ethylene glycol; single-site fit; also run with AMP-PNP or Ca2+ added; settings: both partners purified
[15] = molecular target: T5, DrBphP E536A variant (Deinococcus radiodurans strain R1, UniProt Q9RZA4 1-755, E536A, biliverdin chromophore (molar excess of biliverdin hydrochloride added to the lysate)); experiment: as above; settings: both partners purified
T5 construct: source: E. coli BL21 (DE3), purified (NiNTA, SEC)
T5 sequence: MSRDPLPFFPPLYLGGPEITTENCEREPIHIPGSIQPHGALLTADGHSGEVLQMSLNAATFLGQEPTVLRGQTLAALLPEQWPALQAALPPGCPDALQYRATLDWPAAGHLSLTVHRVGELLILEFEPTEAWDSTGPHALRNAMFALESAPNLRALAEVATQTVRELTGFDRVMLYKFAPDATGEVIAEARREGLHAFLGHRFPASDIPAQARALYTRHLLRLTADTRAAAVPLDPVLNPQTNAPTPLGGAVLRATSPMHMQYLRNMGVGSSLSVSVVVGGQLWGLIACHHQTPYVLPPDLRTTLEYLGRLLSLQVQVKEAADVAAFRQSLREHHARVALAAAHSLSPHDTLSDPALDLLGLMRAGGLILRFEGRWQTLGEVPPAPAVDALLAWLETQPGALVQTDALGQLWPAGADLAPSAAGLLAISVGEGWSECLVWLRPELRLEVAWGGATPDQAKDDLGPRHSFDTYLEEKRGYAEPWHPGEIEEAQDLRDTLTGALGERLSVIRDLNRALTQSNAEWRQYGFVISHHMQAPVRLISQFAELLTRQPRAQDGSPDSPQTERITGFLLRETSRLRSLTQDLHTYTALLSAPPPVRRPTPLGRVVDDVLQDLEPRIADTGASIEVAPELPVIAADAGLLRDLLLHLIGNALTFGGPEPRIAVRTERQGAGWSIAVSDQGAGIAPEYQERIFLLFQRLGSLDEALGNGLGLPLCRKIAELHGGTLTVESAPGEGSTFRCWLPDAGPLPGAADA

[16] = molecular target: T4, bacteriophytochrome from Deinococcus …; experiment: SPR; Biacore X; response regulator coupled (EDC/NHS) on a carboxymethyldextran chip, phytochrome flowed; dark (Pr, far-red 785 nm pre-illumination); 20 mM HEPES, 300 mM NaCl, 5 mM MgCl2, 0.10% Tween20, pH 7.5; room temperature; steady-state (Req) fit, 1:1 model; settings: both partners purified
[17] = molecular target: the molecule itself; experiment: SEC; EGFP-labeled response regulator alone; Superdex-200 Increase 3.2/300; 25 mM Tris/HCl pH 7.8, 5 mM MgCl2, 4 mM 2-mercaptoethanol, 5% ethylene glycol; 24 µl at 5 mg/ml; plotted at 280 nm

Nc1ncnc2c1ncn2[C@@H]1O[C@H](COP(=O)(O)OP(=O)(O)OP(=O)(O)O)[C@@H](O)[C@H]1O [ATP] was tested, and the “Phos-tag gel, dephosphorylation of phospho-DrRR with and without ATP” value [1] was “the phosphatase activity in DrBphP depended on ATP addition”.

In the case of CC(=O)OP(=O)(O)O [acetyl phosphate], the “chemical phosphorylation, Phos-tag gel” value [2] is reported as “whereas AtRR1 responded to the treatment weakly”.

B1: bacteriophytochrome from Deinococcus radiodurans (DrBphP), wild type (enzyme)
chain: MSRDPLPFFPPLYLGGPEITTENCEREPIHIPGSIQPHGALLTADGHSGEVLQMSLNAATFLGQEPTVLRGQTLAALLPEQWPALQAALPPGCPDALQYRATLDWPAAGHLSLTVHRVGELLILEFEPTEAWDSTGPHALRNAMFALESAPNLRALAEVATQTVRELTGFDRVMLYKFAPDATGEVIAEARREGLHAFLGHRFPASDIPAQARALYTRHLLRLTADTRAAAVPLDPVLNPQTNAPTPLGGAVLRATSPMHMQYLRNMGVGSSLSVSVVVGGQLWGLIACHHQTPYVLPPDLRTTLEYLGRLLSLQVQVKEAADVAAFRQSLREHHARVALAAAHSLSPHDTLSDPALDLLGLMRAGGLILRFEGRWQTLGEVPPAPAVDALLAWLETQPGALVQTDALGQLWPAGADLAPSAAGLLAISVGEGWSECLVWLRPELRLEVAWGGATPDQAKDDLGPRHSFDTYLEEKRGYAEPWHPGEIEEAQDLRDTLTGALGERLSVIRDLNRALTQSNAEWRQYGFVISHHMQEPVRLISQFAELLTRQPRAQDGSPDSPQTERITGFLLRETSRLRSLTQDLHTYTALLSAPPPVRRPTPLGRVVDDVLQDLEPRIADTGASIEVAPELPVIAADAGLLRDLLLHLIGNALTFGGPEPRIAVRTERQGAGWSIAVSDQGAGIAPEYQERIFLLFQRLGSLDEALGNGLGLPLCRKIAELHGGTLTVESAPGEGSTFRCWLPDAGPLPGAADA
modifications: biliverdin chromophore (molar excess of biliverdin hydrochloride added to the lysate; thioether linkage to the conserved cysteine within the PAS domain)
Work on B1 yielded a Kd [3] of 2.8 µM, a Kd [4] of 35 µM and a Kd [5] of roughly 11 µM. It also gave a Kd [6] of 6.2 µM, a koff [7] of 0.0046 s⁻¹ and a Kd [8] of 15.5 µM. It also gave a koff [9] of 0.0065 s⁻¹ and a Kd [10] of 35 µM.

B2: response regulator from Deinococcus radiodurans (DrRR) (natural protein)
chain: MPERASVPLRLLLVEDNAADIFLMEMALEYSSVHTELLVARDGLEALELLEQAKTGGPFPDLILLDLNMPRVDGFELLQALRADPHLAHLPAIVLTTSNDPSDVKRAYALQANSYLTKPSTLEDFLQLIERLTAYWFGTAAIPQTYQPQ
notes: consists only of a receiver (REC) domain; Forms dimers in the crystal (four monomers, two dimers in the asymmetric unit); also called Q9RZA5_DEIRA; source: E. coli BL21 (DE3), purified (NiNTA, SEC)
Work on B2 yielded a Kd [11] of 13 µM, a Kd [12] of roughly 10 µM and a Kd [13] of 60 ± 7 µM. The Kd [14] was 8.1 µM, the binding result [15] was “binds” and the Kd [16] was 43 ± 8 µM.

B3: EGFP-labeled AtRR1 (natural protein)
chain: MPELRPILLVEDNPRDLELTLTALEKCQLANEVVVARDGTEALDYLNVTGSHHNRPGGDPAVVLLDLKLPKVDGLEVLQTVKGSDHLRHIPVVMLTSSREEQDLVKSYELGVNAFVVKPVEFNQFFKAIQDLGVFWALLNE
notes: also called EGFP-AtRR1; source: E. coli BL21 (DE3), purified (NiNTA, SEC)
In the case of B3, the “stoichiometry N” value [17] is reported as 2.
